The experiment addresses HLA-DR on BJAB cells (human (endogenous in BJAB)). Description: flow cytometry on cells; full antibody titration of purified IgGs on HLA-DR-expressing BJAB cells, Fc Block, 1 h at 4 °C, detected with AF488 goat anti-human IgG Fcγ; also after storage of the IgGs at -20, 4 or 40 °C for up to 4 weeks. (Flow cytometry measures light scatter and fluorescence of single cells or particles in a stream.)

B1: humanized 44H10 version 17 IgG (antibody, V domains shown)
VH: QVTLKESGPVLVKPTETLTLTCTVSGFSLTSYGVHWIRQPPGKALEWLAVIWAGGSISYSTSLMSRLTISKDTSKSQVVLTMTNMDPVDTATYYCARAYGDYVHYAMDYWGQGTLVTVSS
VL: DIQMTQSPSSLSASVGDRVTITCRASQEISGYLTWLQQKPGKAPKLLIYAASTLDSGVPSRFSGSGSGTDFTLTISSLQPEDFATYYCLQYTNYPLTFGQGTKLEIK
For the molecule B1, the fold difference in EC50 against parental 44H10 was above 50 fold.

These data come from PMC11270187.
